# Reference: the nanobody polyreactivity screen of Harvey et al. (2022)
# Experiment: yeast display, Sf9 membrane polyspecificity reagent, FACS + sequencing; frameworks hold sequencing errors
# Outline: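 Galactose-induced (36–48 hours) yeast carrying a synthetic nanobody display library were exposed to 10% biotinylated, detergent-solubilized Sf9 membrane reagent at 4 °C for 1 hour. FACS followed streptavidin microbead enrichment, using low and high (top ~1%) gates for expression (anti-HA) and reagent binding (streptavidin). Colony PCR, MiSeq 2 × 250 sequencing and CDR-length filtering followed. Labels for polyreactivity reflect the gate of origin.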
row,Sequence,polyreactivity (PSR sort gate)
1,QVQLVESGGGLVQAGGSLRLSCAASGRIFDRNAMGWYRQAPGKERELVAAIDDSGGDTSYADSVKGRFTISRDNAKNTVYLQMNSLKPEDTAVYYCNAGYADFVTYPRYYYWGQGTQVTVSS,low polyreactivity
2,QVQLVESGGGLVQAGGSLRLSCAASGYTFWYYTMGWYRQATGKERELVATISSNGRRTYYADSVKGRFTISRDNAKNTVYLQMNSLYPEDTAVYYCAAVLYRSWVYTTHDYWGHGTQVTVSS,high polyreactivity
3,QVQLVESGGGIVQEGGSLRLSCAASGRTFNRYAMGWYRQAPGKERELVAAISWSGGRTYYADSVKGRFTISRDNAKNTVYLQMNSLIPEGTAVYYCAKEAYIRYDYWGQGTQVTVSS,low polyreactivity
4,QVQLVESGGGLVQAGGSLRLSCAASGITIDYYAMGWYRQAPGKERELVAAISSVGNTNYADSVKGRFTISRDNAKNTVYLQMNSLKPEDTAVYYCATYAYYLYHVGTAYDYWGQGTQVTVSS,high polyreactivity
5,QVQLVESGGGLVQAGGSLRLSCAASGSTFYAYDMGWYRQAPGKERELVAAISSGGSTYYADSVKGRFTISRDNAKNTVYLQMNSLKPEDTAVYYCATEYTYELEASEPSDYDYWGQGTQVTVSS,low polyreactivity
6,QVQLVESGGGLVQAGGSLRLSCAASGSIFDYNTMGWYRQAPGKEREFVAAISSSGGGTSYADSVKGRFTISRDNAKNTVYLQMNSLKPEDTAVYYCAALIKLTPYQRQYWKYRAYYYWGQGSQVTVSS,high polyreactivity
7,QVQIVESGGGLVQAGGSLRLSCAASGRTFYSYAMGWYRQAPGKERELVAAIRWPGVRTYYADSVKGRFTISRDNAKNSFYLQMNSLKPEDTAVYYCAVYRYSGKGYRGPRDYWGQGTQVTVSS,high polyreactivity
8,QVQLVESGGGLVQAGGSLRLICAASGRIFDPYAMGWYRQAPGKERELVASISWSGGRTYYADSVKGRFTISRDNAKNTVYLQMNSLKPEDTAVYYCAARQWYRYKVRFDYWGQGTQVTVSS,high polyreactivity
9,QVQLVESGGGLVQAGGSLRLSCAASGSTFTFYAMGWYRQAPGKERELVATISSSGGSTYYADSVKGRFTISRDNAKNTVYLQMNSLKPEDTAVYYCTATTAPRDGKWQGGMDYWGQGTQVTVSS,low polyreactivity
10,QVQLVESGGGLVQAGGSLRLSCAASGRIFHRYAMGWYRQAPGKEREFVAAISSRGGSTYYADSLKGRFTISRDTAKNTVDFQINSLKPEETAVYYCAAQIGYRSGEFYYWGQGTQVTVSS,high polyreactivity
11,QVQLVESGGGLVQAGGSLRLSCAASGLIFSRYAMGWYRQAPGKERELVAVISWSGGRTYYADSVKGRFTISRDNAKNTVYLQMNSLKPEDTAVYYCAARSYGGQGVRMDYWGQGTQVTVSS,high polyreactivity
12,HVQLVESGGGLVQAGGSLRLSCAASGRNFIYNAMGWSSPAPGTDRELVAAINRSGVSTHYADSVKGRFTISRDNAKKTVYLQMNSLKPEDTAVEYCARTVYGARSYDYWGQGTQVTVSS,low polyreactivity
13,QVQLVESGGGLVQAGVSLRLSCAASGSTFRKYTMGWSRQAPGKERELVAAITYRGDRTYYADSVKGRFTISRDNAKNTVFIQMNSLIPEDTAVYYCASTSYYGAVWYIFYYWGQGTQVTVSS,high polyreactivity
14,QVQLVESGGGLVQAGGSLRISCAPSGIIFYQNTMGWYRQAPGKERELVATITKRGGSSYYADSVKGRFTISRDNAKNTVYLQMNSLKPEDTAVYYCNAAKYAASYIGYGYWGQGTQVTVSS,high polyreactivity
15,QVQLVESGGGLVQAGGSLRLSCAASGFTFWPYAMGWYRQAPGKERELVAAITWSGGRTYYADSVKGRFTISRDNAKNTVYLQMNSLKPEDTAVYYCNVDAYGYRPYRYYYWGQGTQVTVSS,high polyreactivity
16,QVQLVESGGGLVQAGGSLRLSCDASGSIFYNNAMGWYRQAPGKERELVATIRRSGGSTYYADSVKGRFTISRDNAKNTVYLQMNSLKPEDTAVYYCAADYTPDLLSKVDYWGQGTQVTVSS,low polyreactivity
17,QVQLVESRGGLVQAGGSLRLSSAASGITFGRNPMGWYRQAPGKERELVAAIESGGNTYADSVKGRFTISRDNAKNTVYLQMNSLKPEDTAVYYCAVDGGEFSSYGYWGQGTQVTVSS,low polyreactivity
18,QVQLVESGGGLVQAGGSLRLSCAASGSTFGFYAMGGYRQAPGKERELVAVISSGGGTNYADSVKGRFTISRDNAKNTVYLQMNSLKPEDTAVYYCAASRFALSGGYDYWGQGTQVTVSS,low polyreactivity
19,QVQLEESGGGLVQAGGSLRLSCAASGSTFESYAMGWYRQAPGKERELVAAISWRVGSTYYADSVKGRFTISRDNAKNTFYLQMNILKPEDTAVYYCASKGWYSHYGGYDYWGQGTQVTVSS,low polyreactivity
20,QVQLVESGGGLVQAGGSLRLSCAASGLTFYQNAMGWYRPAPGTERELVAGISSVGSTKYADSVKGRFTISRDNAKNTVYLQMNSLKPEDTAVYYCAPRFYAFRKGYYYWGQGTQVTVSS,high polyreactivity
21,QVQLVESGGGLDHAGGSLRLSCAASGITFKRYAMGWYRQAPGKERELVAAISDIGGRTYYADSVKGRFTISRDNAKNTVYLQMNSLKPEDTAVYYCAADYYSPVDWYYYWGQGTQVTVSS,high polyreactivity
22,QVQLVESGGGLVQAGGSLRLSCAASGFTFYPYAMGWYRQAPGKERELVASISSRGGSRTYYADSVKGRFTISRVNEKNTVYLQMNSLKTEDSAVYYCAATYVGLYRGYFTLTYYYWGQGTPVTVSS,high polyreactivity

row,Sequence,polyreactivity (PSR sort gate)
1,QEQLQESGGCLVQAGCSLRLSCAPSGTISDSGLMGWYRQPQGKERELVAGISSGGITNYADSVKGRLTISRDNAKNTVYLQMNSLKPEDTAVYYCAADSPVSVTADDGYWGQGTQVTVSS,low polyreactivity
2,QVQLVESGGGLVQAGGSLRLSCAASGSIFRYYAMGWYRQAPGKERELVAAITSGGSTSYADSVKGRFTISRDNAKNTVYLQMNSLKPEDTAVYYCAKRSRHNKYYYWGQGTQVTVSS,high polyreactivity
3,QVQLVESGGGLVQAGGSLRLSCAASGSTFVYYAMGWYRQAPGKERELVADISWSGGDTYYADSVKGRFTISRDNAKNTVYFQMNSLKPEDTAVYYCAAEWSTPSYVGFADGFEYWGQGTQVTVSS,low polyreactivity
4,QVQLVESGGGLVQAGGSLRLSCAASGIIFDHYAMGWYRKAPGKERELVAAITSGGRTYYADSVKGRFTISRDNAKKTVYLQMNSLKPEDTAVYYCNARFRSSARLAYYYWGQGTQVTVSS,high polyreactivity
5,QVQLVESGGGLVQAGGSLRLSCAASGYTFLGYAMGWYRQAPGKERELVAAIRRSGGRPYYADSVKGRFTISRDNAKNTVYLQINRLKPEDTAVYYCAQGYVGEYDYWGQGTQVTVTS,high polyreactivity
6,QVQLVESGGGIVQAGGSLRLSCAASGIIFSWYAMGWYRQAPGKERELVAAISKGGGSTYYADSVKGRFTISRDNAKNTVYLQMNSLKPEDTAVYYCAAASSYGYGYWGQGTQVTVSS,high polyreactivity
7,QVQLVESGGGLVQAGGSLRLSCAASGSIFSFYTMGWYRQAPGKERELVASISRSGGTTYYADSVKGRFTISRDNAKNTVYLQMNSLKPEDTAVYYCAVRQAKYGGAYYGYYYWGQGTQVTVSS,high polyreactivity
8,QVQLVESGGGVVQAGGSLRLSCAASGRIFHYNAMGWYRQAPGKERELVAAISTGGSSNYADSVKGRFTISRDNAKNTVYLQMNSLKPEDTAVYYCAADHPVTYPTSKFDYWGQGTQVTVSS,low polyreactivity
9,QVQLVESGGGLVQAGGSLRLSCAASGLIVWYYAMGWYRQAPGKERELVATITSRGGSTYYADSVKGRFTISRDNAKNTVYLQMNSLKPEDTAVYYCARENPGDSYYDYWGQATQVTVSS,low polyreactivity
10,QVQLVKSGGGLVQAGGSLRLSCAASGIIFTDYGMGWYRQAPGKERELVAVISRGGTTKYADSVKGRFTISRDNAKNTVYLQMNSLQPEDTAVYYCAARTWAGRWYGLDFWGQGTQVTVSS,high polyreactivity
11,QVQLVESGGGLVQAGGSLRLSCAASGRIFNENAMGWYRQAPGKERELVAAISRRGGTTYYADSVKGRFTISRDNAKNTVYLQMNSLIPEDTAVYYCNARYSKKGESQREYDYWGQGTQVTVSS,low polyreactivity
12,QVQLVESGGGLVQARGSLRLSWAASGSTFQVYAMGWSRPAPGKERELVAAINYSGGSTYYADSVKGRFTISRDNAKNTVYVLMNSLKPEDTAVYYCAVKLRSRAGTSYGYWGQGTQVTVSS,high polyreactivity
13,QVQLVESGGGLVQAGGSLRLSCAASGSIFPLYDMGWYRPAPGKERELVAGISSGGSTNYADSVKGRFTISRDNAKNTVYLQMNSLKPEDTAVYYCAATGSSRYGYWGQGTQVTVSS,low polyreactivity
14,QVQLVESGGGLVQAGGSLRLSCAASGSTFPYNAMGWYRQAPGKEREFVAAITSDDTTNYADSVKGRFTISRDNAKKTVYLQMNSLKPEDTAVYYCAAEYRYPYLRGAGDYWGQGTQVTVSS,low polyreactivity
15,QVQIEESGGGLVQAGRSHRLSCAASGSTFGSYAMRWYRQAPGKERELVAAISASGGSTYYADSVKGRFTISRDNAKHTVYLQMNSLKPEDTAVFYCATVYYSARYNYWGQGTQVTVSS,high polyreactivity
16,QVQIVESGGGLVQAGVSLRLSCAASGSTFETNTMGWYRKAPGKERELVAAITTGGRTYYADSLKGRFSISRDNAKNNVYLQMNSLKPEDTAVYYCAVAYWNRQSLFRMYYWGQGTQVTVSS,high polyreactivity
17,QVQLVESGGGLVQAGGSLRLSCAASGFTFRVYAMGWYRQAPGKERELVAAITQRGGSTYYADSVKGRFTISRDNSKNTVYLQMNRLNTEDTAVYYCNKFAGQPTYDYWGQGTQVTVSS,high polyreactivity
18,QVQLVESGGGLVQAGGSLRLSCAASGSIFRGYTMGWYIQAPGKERELVAAISTRGGSTYYADSVKGRFTISRDNSKNTVYLQMNSLKPEDTAVYYCNARSRGRASGYDYWGQGTQVTVSS,high polyreactivity
19,QVQLVESGGGLGQAGGSLRLSCAASGITYDGYAMGWYRQAPGKERELVAAITYSGGRTYYADSVKGRFTISRDNAKNTVYLQMNSLKPEDTAVYYCAVVSRRLYEYDYWGQGTQVTVSS,high polyreactivity
20,QVQLVESGGGLVQAGGSIRLSCAASGSTFRGYSMGWYRQAPGKERELVAAISSRGARTHYADSVKGRFTISRDNSKNTVYLQMNCLKPEDTAVYDCAKVWVRSGRRKMDYWGQGTQVTVSS,low polyreactivity
21,QVQLVESGGGLVQAGGSLRLSCAASGSTSYRYAMGWYRQAPGKERELVATITSGGRTYYADSVKGRFTISRDNAKNTVYLQMNSLKPEDTAVYYCNKLNYWYKHYYWGQGTQVTVSS,high polyreactivity
